Experiment [1] deals with T1, Aurora A kinase domain (residues 126–390) of human Aurora A with hexa-His tag (human, UniProt O14965 126-390).
T1 construct: Construct for biophysical assays; Co-expressed with λ phosphatase, so probably not phosphorylated (surmise); The crystallography constructs differ (Thr287Ala or Cys290Ala); also called Aurora A protein; pBAT4-AurAS.003; source: E. coli BL21(DE3) with pUBS520, double cistronic construct with λ phosphatase, purified (HisTrap, Superdex 75)
T1 sequence (looked up): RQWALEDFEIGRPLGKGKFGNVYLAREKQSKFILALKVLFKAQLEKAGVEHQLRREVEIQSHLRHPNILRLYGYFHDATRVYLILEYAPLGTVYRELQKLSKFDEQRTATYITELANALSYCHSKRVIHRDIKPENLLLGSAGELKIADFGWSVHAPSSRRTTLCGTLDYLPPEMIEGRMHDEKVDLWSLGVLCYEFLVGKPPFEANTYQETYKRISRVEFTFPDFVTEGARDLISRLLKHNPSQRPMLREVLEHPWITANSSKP
In words: fluorescence polarisation; direct titration of up to 200 nM Aurora A to 11 nM labeled TPX2 peptide; 100 mM HEPES pH 7.4, 100 mM magnesium acetate, 50 mM NaCl, 0.02% P20, 1 mM DTT, 1 mM ATP, 10% (v/v) DMSO. The following applies: both partners purified.

In experiment [2] the target is T1, Aurora A kinase domain (residues …). In words: ligand-observed NMR (CPMG) competition; small-molecule fragments bound to Aurora A, displaced by added TPX2 peptide 7-22 but not by a tight-binding ATP-site ligand. The following applies: both partners purified.

No end group written: not given here.

B1: TPX2 peptide (residues 7–43) with a C-terminal GGGCSS tail, labeled with Alexa Fluor 488 (peptide)
peptide: GPGSYSYDAPSDFINFSSLDDEGDTQNIDSWFEEKANLENLKGGGC(Alexa Fluor 488 C5 maleimide)SS
notes: residues left at the N-terminus before the TPX2 part in the printed peptide (after HRV 3C cleavage); TPX2, UniProt Q9ULW0, residues 7-43; C-terminal tail as printed: LK followed by the stated GGGCSS tail; the cysteine carries the dye; Whole printed peptide: [residues removed]; also called labeled TPX2 peptide; not shown: His-tag, N-terminal, cleaved; GB1, N-terminal, cleaved
On to B1, for which the Kd in experiment [1] is 1.2 nM.

B2: TPX2 peptide fragment (amino acids 7–22) (peptide, UniProt Q9ULW0 7-22, looked up)
peptide: SYSYDAPSDFINFSSL
notes: TPX2, UniProt Q9ULW0 (printed for the longer peptide), amino acids 7-22; detailed methods are in the Supporting Information PDF
Consider B2, for which the binding result in experiment [2] is recorded as “binds”.

The term Kd denotes the concentration at which binding is half-saturated. A low value points to a tighter complex.

These data come from publication PMC11403621, “Selective Aurora A-TPX2 Interaction Inhibitors Have In Vivo Efficacy as Targeted Antimitotic Agents” (Journal of Medicinal Chemistry, 2024).
